In patent publication US20250388643A1, “GLUCAGON-LIKE PEPTIDE-2 COMPOSITIONS AND METHODS OF MAKING AND USING SAME” (Amunix Pharmaceuticals, Inc., priority 2011, published 2025):
Read-outs that look alike come from different tables or passages of the source. Marks after values point to notes of the source that are not given here.

Key:
[1] = mouse, in vivo
Protocol: The fusion protein GLP2-2G-XTEN_AE864 was evaluated for its pharmacokinetic properties in C57Bl/6 mice following subcutaneous (SC) administration. Female C57Bl/6 mice were injected SC with 2 mg/kg (25 nmol/kg) of the GLP2-2G-XTEN (lot AP498A) at 0.25 mg/mL (8 mL/kg). Three mice were sacrificed at each of the following time points: Predose, 0.08, 4, 8, 24, 48, 72, 96 and 120 hours post-dose. Blood samples were collected from the mice and placed into prechilled heparinized tubes at each interval and were separated by centrifugation to recover the plasma. The samples were analyzed for fusion protein concentration, performed by both anti-XTEN/anti-XTEN sandwich ELISA (AS1405) and anti-GLP2/anti-XTEN sandwich ELISA (AS1717), and the results were analyzed using WinNonLin to obtain the PK parameters.

[2] = system: small intestine growth in rats; test: Intestinotrophic growth in normal rats (small intestine weight and length); assay type: in vivo, rat
Protocol: To determine the intestinotrophic properties of GLP2-XTEN, small intestine growth in rats was measured as a primary pharmacodynamic endpoint. […] GLP2-2G-XTEN was dosed at 25 nmol/kg once daily for 12 days. After sacrifice, a midline incision was made, the small intestines were removed, stretched to their maximum length and the length recorded. The fecal material was flushed from the lumen and the small intestinal wet weight recorded. The small intestine length and weight data were analyzed with an ANOVA model with a Tukey/Kramer post-hoc test for pairwise comparisons, with significance at p=0.05.

[3] = parameters: species or system human
Source text: The cumulative results of the PK analyses were used to perform allometric scaling of GLP2-2G_AE864 terminal half-life, clearance and volume of distribution using data from three species (mouse, rat and monkey). Pharmacokinetic values for a 70 kg human were predicted by extrapolating the log linear relationship between body weight and each pharmacokinetic parameter, as shown in FIG. 17. […] The terminal half-life in humans can also be estimated using the predicted values for clearance (Cl) and volume of distribution (Vd) as 0.693×Vd/Cl.

[4] = biological target: T1, GLP2 G-protein coupled receptor (Homo sapiens, UniProt O95838); test: GLP2R calcium flux potency assay (GPCR Profiler, in vitro receptor binding); assay type: cell-based; conditions: calcium flux GLP2R cell assay
T1 construct: host or cells: Chem-11 cell
T1 sequence (O95838 1-553): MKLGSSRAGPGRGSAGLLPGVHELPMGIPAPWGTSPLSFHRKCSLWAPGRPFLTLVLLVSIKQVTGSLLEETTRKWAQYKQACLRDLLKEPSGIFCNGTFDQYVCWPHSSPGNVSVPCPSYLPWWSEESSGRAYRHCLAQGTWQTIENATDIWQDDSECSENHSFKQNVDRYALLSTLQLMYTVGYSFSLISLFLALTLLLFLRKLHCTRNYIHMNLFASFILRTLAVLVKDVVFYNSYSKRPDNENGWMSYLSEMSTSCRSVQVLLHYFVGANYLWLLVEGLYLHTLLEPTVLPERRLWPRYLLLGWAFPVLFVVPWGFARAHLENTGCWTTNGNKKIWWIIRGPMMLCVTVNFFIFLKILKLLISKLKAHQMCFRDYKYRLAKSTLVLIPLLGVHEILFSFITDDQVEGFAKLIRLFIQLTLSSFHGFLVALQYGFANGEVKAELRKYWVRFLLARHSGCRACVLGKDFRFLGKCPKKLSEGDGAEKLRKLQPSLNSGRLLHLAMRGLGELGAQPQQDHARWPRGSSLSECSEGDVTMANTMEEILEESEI
Protocol: A receptor binding assay was performed using a GPCR Profiler assay (Millipore) to assess GLP2-2G-XTEN preparations (including AP690). The assay employed a transfected GLP2R cell line (Millipore, Cat #HTS164C) consisting of a Chem-11 human cell stably transfected with the GLP2 G-protein coupled receptor and a G alpha protein that stimulates calcium flux upon agonism of the GLP2 receptor.

[5] = system: indomethacin-induced intestinal inflammation in Wistar rats; test: Rat Crohn's Disease indomethacin-induced intestinal inflammation model, Study 3; assay type: in vivo
Protocol: Study 3: A third indomethacin-induced inflammation study was performed to verify previous results and test additional dose regimens. Intestinal inflammation was induced in male Wistar rats (Harlan Sprague Dawley) using indomethacin administered on Days 0 and 1 of the experiment according to Table 21.
All treatments were administered per the schedule starting on Day-3 of the experiment. Body weights were determined daily. On Day 2 (24 hours post-2nd indomethacin dose), the animals were prepped for sacrifice and analysis. The small intestines were removed and the length of each was recorded. Quantitative histopathology was performed on a subset of samples. Rat small intestine samples consisted of a 3 cm section of proximal jejunum and a 3 cm section of mid-jejunum collected 15 cm and 30 cm from the pylorus, respectively. Samples were fixed in 10% neutral buffered formalin. Samples were trimmed into multiple sections without bias toward lesion presence or absence. These sections were placed in cassettes, embedded in paraffin, microtomed at approximately 4 microns thickness, and stained with hematoxylin and eosin (H&E). The slides were evaluated microscopically by a board certified veterinary pathologist and scored for villous height as well as infiltration/inflammation, mucosal atrophy, villi/crypt appearance, abscesses/ulceration. A 1 to 4 severity grading scale was used, where 1=minimal, 2=mild, 3=moderate, 4=marked/severe, reflecting the combination of the cellular reactions seen histopathologically. Small intestine length was analyzed with an ANOVA model with a Tukey/Kramer post-hoc test for pairwise comparisons, with significance at p=0.05. Non-parametric histology score variables were compared with the vehicle control using a Mann Whitney U test with a Bonferroni correction for the p-value to create an overall alpha of 0.05.

[6] = normal Sprague-Dawley rats, SC 12 days, peptide 12.5 nmol/kg twice daily, fusion protein 25 nmol/kg once daily

B1: GLP2-2G-XTEN_AE864: fusion protein of GLP-2 with glycine at position 2 linked at the C-terminus to XTEN AE864; sequence of FIG. 28 (SEQ ID NO: 798) (protein)
chain: HGDGSFSDEMNTILDNLAARDFINWLIQTKITDGGSPAGSPTSTEEGTSESATPESGPGTSTEPSEGSAPGSPAGSPTSTEEGTSTEPSEGSAPGTSTEPSEGSAPGTSESATPESGPGSEPATSGSETPGSEPATSGSETPGSPAGSPTSTEEGTSESATPESGPGTSTEPSEGSAPGTSTEPSEGSAPGSPAGSPTSTEEGTSTEPSEGSAPGTSTEPSEGSAPGTSESATPESGPGTSTEPSEGSAPGTSESATPESGPGSEPATSGSETPGTSTEPSEGSAPGTSTEPSEGSAPGTSESATPESGPGTSESATPESGPGSPAGSPTSTEEGTSESATPESGPGSEPATSGSETPGTSESATPESGPGTSTEPSEGSAPGTSTEPSEGSAPGTSTEPSEGSAPGTSTEPSEGSAPGTSTEPSEGSAPGTSTEPSEGSAPGSPAGSPTSTEEGTSTEPSEGSAPGTSESATPESGPGSEPATSGSETPGTSESATPESGPGSEPATSGSETPGTSESATPESGPGTSTEPSEGSAPGTSESATPESGPGSPAGSPTSTEEGSPAGSPTSTEEGSPAGSPTSTEEGTSESATPESGPGTSTEPSEGSAPGTSESATPESGPGSEPATSGSETPGTSESATPESGPGSEPATSGSETPGTSESATPESGPGTSTEPSEGSAPGSPAGSPTSTEEGTSESATPESGPGSEPATSGSETPGTSESATPESGPGSPAGSPTSTEEGSPAGSPTSTEEGTSTEPSEGSAPGTSESATPESGPGTSESATPESGPGTSESATPESGPGSEPATSGSETPGSEPATSGSETPGSPAGSPTSTEEGTSTEPSEGSAPGTSTEPSEGSAPGSEPATSGSETPGTSESATPESGPGTSTEPSEGSAPG
Cl [1]: 0.07 mL/h
T ½ [1]: 33.9 h
Vd [1]: 0.14 L/kg
small intestine growth compared with GLP2-2G peptide ([2]; equal nmol/kg dosing): as good or better than GLP2-2G peptide
increase in small intestine length [2, 6]: 9%
increase in small intestine weight [2, 6]: 31%
increase in small intestine length ([2]; normal rats, 25 nmol/kg once daily for 12 days): 10 cm
Cl [3]: 17* ml/hr
T ½ [3]: 240* hr
Vd [3]: 91* mL/kg
potency compared to GLP2-2G [4]: about 2%
small intestine length ([5]; compared to vehicle-treated diseased rats, FIG. 24A): increase in small intestine length
efficacy by regimen compared with peptide ([5]; dosed once at 75 nmol/kg or three times at 25 nmol/kg): as effective as GLP2-2G peptide dosed ten times at 12.5 nmol/kg
villi height ([5]; fusion protein high (total dose 125 nmol/kg) and low (total dose 75 nmol/kg), FIG. 24B): significant increase in villi height
mucosal atrophy score ([5]; high and low dose, vs vehicle-treated diseased rats, FIG. 24C): significantly lower mucosal atrophy score
efficacy in improving indomethacin-induced small intestine damage (histopathology) ([5]; rat, in vivo): as good or better than GLP2-2G peptide
mucosal ulceration and mixed cell infiltrate ([5]; three treatment groups): not significant
